Values joined by “and” are separate entries in the source; they are usually repeats but may differ in a detail not shown here. Equal entries are not always repeated. Where two headings read alike, the source gives them in different places.

Assay [1] concerns the target H3–H4 complex with H3 labeled with Cy3 at Leu-65 (H3 C110A) (Xenopus laevis) (UniProt P84233). The experiment in a line: fluorescence polarisation. (In fluorescence polarisation assays a small probe gives low polarisation when free and higher when bound to something large.)
Assay [2] addresses gH3–gH4 heterodimer (globular forms of histones H3 and H4) (Xenopus laevis) (UniProt P84233). The experiment in a line: SEC. On the technique in general: Size exclusion chromatography separates by hydrodynamic size, large species first.
Assay [3] concerns the target H3–H4 complex with H3 labeled with Cy3 at Gln-125 (H3 C110A) (Xenopus laevis) (UniProt P84233). The experiment in a line: fluorescence polarisation.
The target is the same in assay [4]. The experiment in a line: fluorescence polarisation. This is another data set of the same source.
For assay [5], the target named is RbAp48–H3–H4 complex, labeled with Cy3 at Gln-125 on H3 (human | Xenopus laevis) (UniProt Q09028). The assay is described as follows: fluorescence polarisation.

For orientation: Kd means the constant that tells how readily two partners part at equilibrium. High values mean weaker binding, low ones tighter binding. Regarding “human retinoblastoma-associated protein RbAp48 (from UniProt Q09028 1-425) (natural protein)”, the Kd in assay [1] was 0.61 nM.
In assay [2], “human ASF1^1-159 (anti-silencing function protein 1, residues 1-159) (from UniProt Q9Y294 1-159) (domain or fragment)” yielded a stoichiometry N (ASF1^1-159 : gH3–gH4) of 1. In addition, the Kd was 0.27 nM in assay [3]; 0.3 nM in assay [4]; 7.1 nM and 3 nM and 6.8 nM in assay [5].

These data come from publication PMC3538076.
